B1: SDC25 (protein, UniProt P0CF34 1-1048, looked up)
Putative truncated guanine …: MPITSSPDLFYLNDCDVVYWYDLTRLVCHYVNLTERDLLANEREKFLTSLDLLTAQITYVYMLFRNLRLVEDSFKKTLKKLIYTLSRFSINANIWFHSTLFEEREAIASQKDPERRSPLLQSILGTFQKFHFLLRLLHFLSNPNELTILPQLTPRFFKDSFNTISWNNPFLRKRLNQHMSHDLPRQMIKAVAGASGIVAENIDEIPASKQGTSCSSETSHHSPSAPFQRRRRGTIFSNVSGSSDESDTIWSKRKKPYPLNEETLSLVRARKKQLDGKLKQMIKSANEYLSNTANFSKMLNFEMNFKTYEEVSGTIPIIDILENLDLTIFLNLRELGDENRVFDEDVAIDDEDEEFLKHSLSSLSYILSDYFNMKQYFHDVVVKFIIVAQHLTLEDPFVFSPMQNDLPTGYYEPMKPSSLNLDNAKDKKNGSQNTDIQEEEDEYEPDPDSLILFHNLINQDSDFNDLKFFNLAHVFKKSCDDYFDVLKLAIEFVNQLILERENLLNYAARMMKNNITELLLRGEEGYGSYDGGETAEKSDTNAVYADSDTKDNDEWRDSQVKLPRYLQREYDSELIWGSNNRIKGGSKHALISYLTDNEKKDLFFDITFLITFRSIFTTTEFLSYLISQYNLDPPEDLCFEEYNEWVTKKLIPVKCRVVEIMTTFFKQYWFLGYDEPDLATLNLDYFAQVAIKENITGSVELLKEVNQKFKHGNIQEATAPMKTLDQQICQDHYSGTLYSTTESILAVDPVLFATQLTILEHEIYCEITIFDCLQKIWKNKYTKSYGASPGLNEFISFANKLTNFISYSVVKEADKSKRAKLLSHFIFIAEYCRKFNNFSSMTAIISALYSSPIYRLEKTWQAVIPQTRDLLQSLNKLMDPKKNFINYRNELKSLHSAPCVPFFGVYLSDLTFTDSGNPDYLVLEHGLKGVHDEKKYINFNKRSRLVDILQEIIYFKKTHYDFTKDRTVIECISNSLENIPHIEKQYQLSLIIEPKPRKKVVPNSNSNNKSQEKSRDDQTDEGKTSTKKDRFPKFQLHKTKKKAPKVSK
B2: PIN3 (protein, UniProt Q06449 2-215, looked up)
[PSI+] inducibility protein 3: SASLINRSLTNIRTELDFLKGSNVISNDVYDQINKSLPAKWDPANAPRNASPASLEYVEALYQFDPQQDGDLGLKPGDKVQLLEKLSPEWYKGSCNGRTGIFPANYVKPAFSGSNGPSNLPPPPQYKAQELQQIPTQNSAASSYQQQPFPPPSTNYYQQPQQQPQQAPPPQQQQQQQQHQSSHSHLKSFGSKLGNAAIFGAGASIGSDIVNNIF

Test system: Abp1 PPIs
Assay: DHFR-PCA of Abp1 SH3-swapped baits (Fig. 2B-D, S2C, S2F);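 on Protein-protein interaction distance between Abp1 SH3-swapped baits, to ABP1: Euclidean distance between DHFR-PCA score profiles of the baits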;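 on Protein-protein interaction distance between Abp1 SH3-swapped baits, to BEM1-2: Euclidean distance between DHFR-PCA score profiles of the baits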;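 on Protein-protein interaction distance between Abp1 SH3-swapped baits, to BOI1: Euclidean distance between DHFR-PCA score profiles of the baits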;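 on Protein-protein interaction distance between Abp1 SH3-swapped baits, to BZZ1-1: Euclidean distance between DHFR-PCA score profiles of the baits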
Format: cell-based, Saccharomyces cerevisiae
Details: for Protein-protein interaction distance between Abp1 SH3-swapped baits, to ABP1: Abp1 bait with swapped SH3, distance to bait with ABP1 SH3; for Protein-protein interaction distance between Abp1 SH3-swapped baits, to ABP1 / Protein-protein interaction distance between Abp1 SH3-swapped baits, to BBC1 / Protein-protein interaction distance between Abp1 SH3-swapped baits, to BEM1-1 / Protein-protein interaction distance between Abp1 SH3-swapped baits, to BEM1-2 / Protein-protein interaction distance between Abp1 SH3-swapped baits, to BOI1 / Protein-protein interaction distance between Abp1 SH3-swapped baits, to BOI2 / Protein-protein interaction distance between Abp1 SH3-swapped baits, to BUD14 / Protein-protein interaction distance between Abp1 SH3-swapped baits, to BZZ1-1 / Protein-protein interaction distance between Abp1 SH3-swapped baits, to BZZ1-2 / Protein-protein interaction distance between Abp1 SH3-swapped baits, to CDC25 / Protein-protein interaction distance between Abp1 SH3-swapped baits, to CTTN / Protein-protein interaction distance between Abp1 SH3-swapped baits, to CYK3 / Protein-protein interaction distance between Abp1 SH3-swapped baits, to DBNL / Protein-protein interaction distance between Abp1 SH3-swapped baits, to FUS1 / Protein-protein interaction distance between Abp1 SH3-swapped baits, to HCLS1 / Protein-protein interaction distance between Abp1 SH3-swapped baits, to HOF1 / Protein-protein interaction distance between Abp1 SH3-swapped baits, to HSE1 / Protein-protein interaction distance between Abp1 SH3-swapped baits, to LSB1 / Protein-protein interaction distance between Abp1 SH3-swapped baits, to LSB3 / Protein-protein interaction distance between Abp1 SH3-swapped baits, to MYO3 / Protein-protein interaction distance between Abp1 SH3-swapped baits, to MYO5 / Protein-protein interaction distance between Abp1 SH3-swapped baits, to NBP2 / Protein-protein interaction distance between Abp1 SH3-swapped baits, to PEX13 / Protein-protein interaction distance between Abp1 SH3-swapped baits, to PIN3 / Protein-protein interaction distance between Abp1 SH3-swapped baits, to RVS167 / Protein-protein interaction distance between Abp1 SH3-swapped baits, to SDC25 / Protein-protein interaction distance between Abp1 SH3-swapped baits, to SHO1 / Protein-protein interaction distance between Abp1 SH3-swapped baits, to SLA1-1 / Protein-protein interaction distance between Abp1 SH3-swapped baits, to SLA1-2 / Protein-protein interaction distance between Abp1 SH3-swapped baits, to SLA1-3 / Protein-protein interaction distance between Abp1 SH3-swapped baits, to YSC84: sheet Fig2C; for Protein-protein interaction distance between Abp1 SH3-swapped baits, to BBC1: distance to Abp1 bait with BBC1 SH3; for Protein-protein interaction distance between Abp1 SH3-swapped baits, to BEM1-1: distance to Abp1 bait with BEM1-1 SH3; for Protein-protein interaction distance between Abp1 SH3-swapped baits, to BEM1-2: distance to Abp1 bait with BEM1-2 SH3; for Protein-protein interaction distance between Abp1 SH3-swapped baits, to BOI1: distance to Abp1 bait with BOI1 SH3; for Protein-protein interaction distance between Abp1 SH3-swapped baits, to BOI2: distance to Abp1 bait with BOI2 SH3; for Protein-protein interaction distance between Abp1 SH3-swapped baits, to BUD14: distance to Abp1 bait with BUD14 SH3; for Protein-protein interaction distance between Abp1 SH3-swapped baits, to BZZ1-1: distance to Abp1 bait with BZZ1-1 SH3; for Protein-protein interaction distance between Abp1 SH3-swapped baits, to BZZ1-2: distance to Abp1 bait with BZZ1-2 SH3; for Protein-protein interaction distance between Abp1 SH3-swapped baits, to CDC25: distance to Abp1 bait with CDC25 SH3; for Protein-protein interaction distance between Abp1 SH3-swapped baits, to CTTN: distance to Abp1 bait with CTTN SH3; for Protein-protein interaction distance between Abp1 SH3-swapped baits, to CYK3: distance to Abp1 bait with CYK3 SH3; for Protein-protein interaction distance between Abp1 SH3-swapped baits, to DBNL: distance to Abp1 bait with DBNL SH3; for Protein-protein interaction distance between Abp1 SH3-swapped baits, to FUS1: distance to Abp1 bait with FUS1 SH3; for Protein-protein interaction distance between Abp1 SH3-swapped baits, to HCLS1: distance to Abp1 bait with HCLS1 SH3; for Protein-protein interaction distance between Abp1 SH3-swapped baits, to HOF1: distance to Abp1 bait with HOF1 SH3; for Protein-protein interaction distance between Abp1 SH3-swapped baits, to HSE1: distance to Abp1 bait with HSE1 SH3; for Protein-protein interaction distance between Abp1 SH3-swapped baits, to LSB1: distance to Abp1 bait with LSB1 SH3; for Protein-protein interaction distance between Abp1 SH3-swapped baits, to LSB3: distance to Abp1 bait with LSB3 SH3; for Protein-protein interaction distance between Abp1 SH3-swapped baits, to MYO3: distance to Abp1 bait with MYO3 SH3; for Protein-protein interaction distance between Abp1 SH3-swapped baits, to MYO5: distance to Abp1 bait with MYO5 SH3; for Protein-protein interaction distance between Abp1 SH3-swapped baits, to NBP2: distance to Abp1 bait with NBP2 SH3; for Protein-protein interaction distance between Abp1 SH3-swapped baits, to PEX13: distance to Abp1 bait with PEX13 SH3; for Protein-protein interaction distance between Abp1 SH3-swapped baits, to PIN3: distance to Abp1 bait with PIN3 SH3; for Protein-protein interaction distance between Abp1 SH3-swapped baits, to RVS167: distance to Abp1 bait with RVS167 SH3; for Protein-protein interaction distance between Abp1 SH3-swapped baits, to SDC25: distance to Abp1 bait with SDC25 SH3; for Protein-protein interaction distance between Abp1 SH3-swapped baits, to SHO1: distance to Abp1 bait with SHO1 SH3; for Protein-protein interaction distance between Abp1 SH3-swapped baits, to SLA1-1: distance to Abp1 bait with SLA1-1 SH3; for Protein-protein interaction distance between Abp1 SH3-swapped baits, to SLA1-2: distance to Abp1 bait with SLA1-2 SH3; for Protein-protein interaction distance between Abp1 SH3-swapped baits, to SLA1-3: distance to Abp1 bait with SLA1-3 SH3; for Protein-protein interaction distance between Abp1 SH3-swapped baits, to YSC84: distance to Abp1 bait with YSC84 SH3
Procedure, shortened: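 Yeast DHFR-PCA in which Abp1 baits, carrying their SH3 replaced by CRISPR–Cas9 with one of 27 yeast SH3s or human CTTN, HCLS1 or DBNL SH3s, were mated against 575 SH3-associated DHFR F[3] preys plus 40 negative controls. Four tests were run per PPI. Diploids were selected twice (48 h, 30 °C), then grown 4 days on PCA selection media.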

[1] = number of PPIs, difference, Abp1 SH3-swapped with the listed SH3, Fig2D,S2F

| Molecule | Protein-protein interaction distance between Abp1 SH3-swapped baits, to ABP1 | Protein-protein interaction distance between Abp1 SH3-swapped baits, to BBC1 | Protein-protein interaction distance between Abp1 SH3-swapped baits, to BEM1-1 | Protein-protein interaction distance between Abp1 SH3-swapped baits, to BEM1-2 | Protein-protein interaction distance between Abp1 SH3-swapped baits, to BOI1 | Protein-protein interaction distance between Abp1 SH3-swapped baits, to BOI2 | Protein-protein interaction distance between Abp1 SH3-swapped baits, to BUD14 | Protein-protein interaction distance between Abp1 SH3-swapped baits, to BZZ1-1 | Protein-protein interaction distance between Abp1 SH3-swapped baits, to BZZ1-2 | Protein-protein interaction distance between Abp1 SH3-swapped baits, to CDC25 | Protein-protein interaction distance between Abp1 SH3-swapped baits, to CTTN | Protein-protein interaction distance between Abp1 SH3-swapped baits, to CYK3 | Protein-protein interaction distance between Abp1 SH3-swapped baits, to DBNL | Protein-protein interaction distance between Abp1 SH3-swapped baits, to FUS1 | Protein-protein interaction distance between Abp1 SH3-swapped baits, to HCLS1 | Protein-protein interaction distance between Abp1 SH3-swapped baits, to HOF1 | Protein-protein interaction distance between Abp1 SH3-swapped baits, to HSE1 | Protein-protein interaction distance between Abp1 SH3-swapped baits, to LSB1 | Protein-protein interaction distance between Abp1 SH3-swapped baits, to LSB3 | Protein-protein interaction distance between Abp1 SH3-swapped baits, to MYO3 | also measured |
| --- | --- | --- | --- | --- | --- | --- | --- | --- | --- | --- | --- | --- | --- | --- | --- | --- | --- | --- | --- | --- | --- |
| B1 | 33.14 | 31.85 | 25.75 | 6.672 | 29.16 | 28.39 | 24.65 | 32.5 | 29.97 | 14.8 | 27.81 | 15.21 | 31.69 | 24.28 | 34.87 | 7.905 | 31.59 | 37.12 | 36.63 | 35.91 | Protein-protein interaction distance between Abp1 SH3-swapped baits, to MYO5: 35.29; Protein-protein interaction distance between Abp1 SH3-swapped baits, to NBP2: 24.44; Protein-protein interaction distance between Abp1 SH3-swapped baits, to PEX13: 35.86; Protein-protein interaction distance between Abp1 SH3-swapped baits, to PIN3: 34.35; Protein-protein interaction distance between Abp1 SH3-swapped baits, to RVS167: 34.37; Protein-protein interaction distance between Abp1 SH3-swapped baits, to SDC25: 0.00; Protein-protein interaction distance between Abp1 SH3-swapped baits, to SHO1: 31.28; Protein-protein interaction distance between Abp1 SH3-swapped baits, to SLA1-1: 14.07; Protein-protein interaction distance between Abp1 SH3-swapped baits, to SLA1-2: 23.99; Protein-protein interaction distance between Abp1 SH3-swapped baits, to SLA1-3: 37.49; Protein-protein interaction distance between Abp1 SH3-swapped baits, to YSC84: 36.86 |
| B2 | 11.43 | 11.25 | 16.56 | 33.69 | 13.58 | 17.21 | 19.7 | 8.164 | 13.53 | 28.09 | 14.08 | 28.76 | 8.074 | 21.08 | 8.844 | 32.38 | 9.808 | 5.513 | 5.817 | 8.374 | Protein-protein interaction distance between Abp1 SH3-swapped baits, to MYO5: 6.67; Protein-protein interaction distance between Abp1 SH3-swapped baits, to NBP2: 18.8; Protein-protein interaction distance between Abp1 SH3-swapped baits, to PEX13: 5.433; Protein-protein interaction distance between Abp1 SH3-swapped baits, to PIN3: 0.00; Protein-protein interaction distance between Abp1 SH3-swapped baits, to RVS167: 5.294; Protein-protein interaction distance between Abp1 SH3-swapped baits, to SDC25: 34.35; Protein-protein interaction distance between Abp1 SH3-swapped baits, to SHO1: 9.004; Protein-protein interaction distance between Abp1 SH3-swapped baits, to SLA1-1: 30.57; Protein-protein interaction distance between Abp1 SH3-swapped baits, to SLA1-2: 21.49; Protein-protein interaction distance between Abp1 SH3-swapped baits, to SLA1-3: 6.016; Protein-protein interaction distance between Abp1 SH3-swapped baits, to YSC84: 5.862; PPIs gained by Abp1 - SH3-dependent PPIs gained by Abp1 [1]: 29; SH3-dependent PPIs - SH3-dependent PPIs gained by Abp1 [1]: 13; SH3-dependent PPIs gained by Abp1 (number of PPIs, Abp1 SH3-swapped with the listed SH3, DHFR-PCA, Fig2D,S2F): 0 |

Reference: publication PMC7954794, “Protein context shapes the specificity of SH3 domain-mediated interactions in vivo” (Nature Communications, 2021)
